From US20140087995A1 (published 2014)
Numbered stars: 1 amine (or outer) side, 2 acyl side, 3 side chain; on linkers, the order of the positions; unused ones are H or OH. Bridge positions count the residues as written; N and C are the ends. Side chains are listed from the residue outwards. Ends that are not written are not given here. * marks the point of attachment. C20 diacid = O=C(O)CCCCCCCCCCCCCCCCCCC(=O)*; γGlu = O=C(O)[C@H](CCC(=O)[*:2])N[*:1]

T1: rat calcitonin receptor (rat, UniProt P32214 25-516)
T1 construct: whole, on cells; Membranes of transiently transfected BHK tk'ts 13 cells; also called rCTR; rat calcitonin (a) receptor
T1 sequence (looked up): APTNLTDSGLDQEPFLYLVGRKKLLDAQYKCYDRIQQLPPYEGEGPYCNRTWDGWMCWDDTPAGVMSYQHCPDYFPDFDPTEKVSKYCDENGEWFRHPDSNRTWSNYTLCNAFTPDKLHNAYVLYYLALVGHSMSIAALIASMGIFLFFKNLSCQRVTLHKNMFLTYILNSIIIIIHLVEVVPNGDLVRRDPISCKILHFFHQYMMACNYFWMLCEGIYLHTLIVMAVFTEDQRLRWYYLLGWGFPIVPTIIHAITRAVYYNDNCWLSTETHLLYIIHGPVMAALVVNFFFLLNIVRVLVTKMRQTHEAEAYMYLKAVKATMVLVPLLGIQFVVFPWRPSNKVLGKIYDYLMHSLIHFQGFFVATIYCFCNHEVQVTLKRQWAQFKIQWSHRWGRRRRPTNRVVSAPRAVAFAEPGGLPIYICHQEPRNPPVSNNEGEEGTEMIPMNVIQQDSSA

T2: human calcitonin receptor (human, UniProt P30988 25-474)
T2 construct: whole, on cells; Membranes of stably transfected cells; also called hCTR; hCT
T2 sequence (looked up): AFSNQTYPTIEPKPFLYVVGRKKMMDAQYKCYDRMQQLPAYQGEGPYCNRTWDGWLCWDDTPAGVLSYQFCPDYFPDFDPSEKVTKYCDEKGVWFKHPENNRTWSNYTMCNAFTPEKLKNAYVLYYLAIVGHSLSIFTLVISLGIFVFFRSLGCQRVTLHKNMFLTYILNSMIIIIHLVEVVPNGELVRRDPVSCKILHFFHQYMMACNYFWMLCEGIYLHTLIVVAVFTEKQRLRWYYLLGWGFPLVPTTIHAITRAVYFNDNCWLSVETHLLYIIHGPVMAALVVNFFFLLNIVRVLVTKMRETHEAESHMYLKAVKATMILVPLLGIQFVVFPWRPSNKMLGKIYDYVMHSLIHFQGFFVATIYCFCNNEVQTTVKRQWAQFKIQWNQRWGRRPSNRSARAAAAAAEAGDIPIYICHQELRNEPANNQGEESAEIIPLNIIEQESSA

T3: rat amylin receptor (rat calcitonin receptor + rat RAMP 3) (rat, UniProt P32214 25-516; Q9JJ73 23-147)
T3 construct: whole, on cells; Membranes of transiently transfected BHK tk'ts 13 cells; also called rAmylin-R; rat amylin 3(a) receptor
T3 sequence (looked up) 1: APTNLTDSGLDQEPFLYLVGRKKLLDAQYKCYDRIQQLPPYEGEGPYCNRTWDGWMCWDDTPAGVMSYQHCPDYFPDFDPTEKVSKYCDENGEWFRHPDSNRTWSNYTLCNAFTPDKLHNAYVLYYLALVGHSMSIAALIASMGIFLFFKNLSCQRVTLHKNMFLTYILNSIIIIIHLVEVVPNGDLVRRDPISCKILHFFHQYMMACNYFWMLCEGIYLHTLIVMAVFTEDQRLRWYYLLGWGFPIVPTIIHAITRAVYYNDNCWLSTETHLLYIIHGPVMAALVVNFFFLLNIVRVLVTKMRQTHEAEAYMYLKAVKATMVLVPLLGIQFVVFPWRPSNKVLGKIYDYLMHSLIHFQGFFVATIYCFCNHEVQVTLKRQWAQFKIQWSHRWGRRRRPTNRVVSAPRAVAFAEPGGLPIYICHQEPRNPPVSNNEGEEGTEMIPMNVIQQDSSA
T3 sequence (looked up) 2: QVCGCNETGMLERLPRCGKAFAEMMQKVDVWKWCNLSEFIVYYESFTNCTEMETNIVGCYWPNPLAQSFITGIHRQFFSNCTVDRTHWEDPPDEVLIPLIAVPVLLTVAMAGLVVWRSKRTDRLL


What was measured:
rat calcitonin receptor [1] = molecular target: T1, rat calcitonin receptor; test: ratio of IC50 on rat calcitonin receptor to IC50 on rat amylin receptor (reference m40)
[2] = molecular target: T2, human calcitonin receptor; test: ratio of IC50 on human calcitonin receptor to IC50 on human amylin receptor (reference m42), SPA competition
In short: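 Membranes (35 ng/μL final) + SPA beads, 50 mM Hepes pH 7.4 buffer with 1 mM CaCl2, 5 mM MgCl₂, 0.1% OA, 0.02% Tween20; 120 min, 25° C, shaking; centrifuged, counted; IC₅₀ by one-site binding competition.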

rat calcitonin receptor [3] = molecular target: T1, rat calcitonin receptor; test: SPA competition with 125I-calcitonin on membranes of BHK tk'ts 13 cells with rat calcitonin receptor (Assay VIII)
[4] = molecular target: T3, rat amylin receptor (rat calcitonin …); test: SPA competition with 125I-rat amylin on membranes of BHK tk'ts 13 cells with rat calcitonin receptor + rat RAMP3 (Assay VI)

| Binder | Ratio rCT/rAmylin binding (rat calcitonin receptor [1]) | Ratio hCT/hAmylin binding [2] | IC50 (rat calcitonin receptor [3]) [nM] | IC50 [4] [nM] |
| --- | --- | --- | --- | --- |
| {C20 diacid-γGlu}-GRCNTATCATQRLAHFLRHSSPNFGAIPSSTNVGHNTY-NH2 (disulfide 3-8; SMILES CC[C@H](C)[C@H](NC(=O)[C@H](C)NC(=O)CNC(=O)[C@H](Cc1ccccc1)NC(=O)[C@H](CC(N)=O)NC(=O)[C@@H]1CCCN1C(=O)[C@H](CO)NC(=O)[C@H](CO)NC(=O)[C@H](Cc1c[nH]cn1)NC(=O)[C@H](CCCNC(=N)N)NC(=O)[C@H](CC(C)C)NC(=O)[C@H](Cc1ccccc1)NC(=O)[C@H](Cc1c[nH]cn1)NC(=O)[C@H](C)NC(=O)[C@H](CC(C)C)NC(=O)[C@H](CCCNC(=N)N)NC(=O)[C@H](CCC(N)=O)NC(=O)[C@@H](NC(=O)[C@H](C)NC(=O)[C@@H]1CSSC[C@H](NC(=O)[C@H](CCCNC(=N)N)NC(=O)CNC(=O)CC[C@H](NC(=O)CCCCCCCCCCCCCCCCCCC(=O)O)C(=O)O)C(=O)N[C@@H](CC(N)=O)C(=O)N[C@@H]([C@@H](C)O)C(=O)N[C@@H](C)C(=O)N[C@@H]([C@@H](C)O)C(=O)N1)[C@@H](C)O)C(=O)N1CCC[C@H]1C(=O)N[C@@H](CO)C(=O)N[C@@H](CO)C(=O)N[C@H](C(=O)N[C@@H](CC(N)=O)C(=O)N[C@H](C(=O)NCC(=O)N[C@@H](Cc1c[nH]cn1)C(=O)N[C@@H](CC(N)=O)C(=O)N[C@H](C(=O)N[C@@H](Cc1ccc(O)cc1)C(N)=O)[C@@H](C)O)C(C)C)[C@@H](C)O, Synthetic acylated analogue of human amylin, extended by Gly at position -1; also called compound 100) | 27.7 | 65.3 | 311 | 11.2 |
| {C20 diacid-γGlu}-GRCNTATCATQRLAAFLRHSSPNFGAIPSSTNVGHNTY-NH2 (disulfide 3-8; SMILES CC[C@H](C)[C@H](NC(=O)[C@H](C)NC(=O)CNC(=O)[C@H](Cc1ccccc1)NC(=O)[C@H](CC(N)=O)NC(=O)[C@@H]1CCCN1C(=O)[C@H](CO)NC(=O)[C@H](CO)NC(=O)[C@H](Cc1c[nH]cn1)NC(=O)[C@H](CCCNC(=N)N)NC(=O)[C@H](CC(C)C)NC(=O)[C@H](Cc1ccccc1)NC(=O)[C@H](C)NC(=O)[C@H](C)NC(=O)[C@H](CC(C)C)NC(=O)[C@H](CCCNC(=N)N)NC(=O)[C@H](CCC(N)=O)NC(=O)[C@@H](NC(=O)[C@H](C)NC(=O)[C@@H]1CSSC[C@H](NC(=O)[C@H](CCCNC(=N)N)NC(=O)CNC(=O)CC[C@H](NC(=O)CCCCCCCCCCCCCCCCCCC(=O)O)C(=O)O)C(=O)N[C@@H](CC(N)=O)C(=O)N[C@@H]([C@@H](C)O)C(=O)N[C@@H](C)C(=O)N[C@@H]([C@@H](C)O)C(=O)N1)[C@@H](C)O)C(=O)N1CCC[C@H]1C(=O)N[C@@H](CO)C(=O)N[C@@H](CO)C(=O)N[C@H](C(=O)N[C@@H](CC(N)=O)C(=O)N[C@H](C(=O)NCC(=O)N[C@@H](Cc1c[nH]cn1)C(=O)N[C@@H](CC(N)=O)C(=O)N[C@H](C(=O)N[C@@H](Cc1ccc(O)cc1)C(N)=O)[C@@H](C)O)C(C)C)[C@@H](C)O, Synthetic acylated analogue of human amylin, extended by Gly at position -1) | 60.9 | 68.6 | 492 | 8.07 |
| K([γGlu-γGlu-C20 diacid])CNTATCATQRLAEFLRHSSNNPGAILSSTNVGPETY-NH2 (disulfide 2-7; N-terminus assumed; SMILES CC[C@H](C)[C@H](NC(=O)[C@H](C)NC(=O)CNC(=O)[C@@H]1CCCN1C(=O)[C@H](CC(N)=O)NC(=O)[C@H](CC(N)=O)NC(=O)[C@H](CO)NC(=O)[C@H](CO)NC(=O)[C@H](Cc1c[nH]cn1)NC(=O)[C@H](CCCNC(=N)N)NC(=O)[C@H](CC(C)C)NC(=O)[C@H](Cc1ccccc1)NC(=O)[C@H](CCC(=O)O)NC(=O)[C@H](C)NC(=O)[C@H](CC(C)C)NC(=O)[C@H](CCCNC(=N)N)NC(=O)[C@H](CCC(N)=O)NC(=O)[C@@H](NC(=O)[C@H](C)NC(=O)[C@@H]1CSSC[C@H](NC(=O)[C@@H](N)CCCCNC(=O)CC[C@H](NC(=O)CC[C@H](NC(=O)CCCCCCCCCCCCCCCCCCC(=O)O)C(=O)O)C(=O)O)C(=O)N[C@@H](CC(N)=O)C(=O)N[C@@H]([C@@H](C)O)C(=O)N[C@@H](C)C(=O)N[C@@H]([C@@H](C)O)C(=O)N1)[C@@H](C)O)C(=O)N[C@@H](CC(C)C)C(=O)N[C@@H](CO)C(=O)N[C@@H](CO)C(=O)N[C@H](C(=O)N[C@@H](CC(N)=O)C(=O)N[C@H](C(=O)NCC(=O)N1CCC[C@H]1C(=O)N[C@@H](CCC(=O)O)C(=O)N[C@H](C(=O)N[C@@H](Cc1ccc(O)cc1)C(N)=O)[C@@H](C)O)C(C)C)[C@@H](C)O, Synthetic acylated analogue of human amylin) | 132 | 7.8 | 86.8 | 0.659 |
| K([γGlu-γGlu-C20 diacid])CNTATCATQRLASFLRHSSPNFGAIPSSTNVGPETY-NH2 (disulfide 2-7; N-terminus assumed; SMILES CC[C@H](C)[C@H](NC(=O)[C@H](C)NC(=O)CNC(=O)[C@H](Cc1ccccc1)NC(=O)[C@H](CC(N)=O)NC(=O)[C@@H]1CCCN1C(=O)[C@H](CO)NC(=O)[C@H](CO)NC(=O)[C@H](Cc1c[nH]cn1)NC(=O)[C@H](CCCNC(=N)N)NC(=O)[C@H](CC(C)C)NC(=O)[C@H](Cc1ccccc1)NC(=O)[C@H](CO)NC(=O)[C@H](C)NC(=O)[C@H](CC(C)C)NC(=O)[C@H](CCCNC(=N)N)NC(=O)[C@H](CCC(N)=O)NC(=O)[C@@H](NC(=O)[C@H](C)NC(=O)[C@@H]1CSSC[C@H](NC(=O)[C@@H](N)CCCCNC(=O)CC[C@H](NC(=O)CC[C@H](NC(=O)CCCCCCCCCCCCCCCCCCC(=O)O)C(=O)O)C(=O)O)C(=O)N[C@@H](CC(N)=O)C(=O)N[C@@H]([C@@H](C)O)C(=O)N[C@@H](C)C(=O)N[C@@H]([C@@H](C)O)C(=O)N1)[C@@H](C)O)C(=O)N1CCC[C@H]1C(=O)N[C@@H](CO)C(=O)N[C@@H](CO)C(=O)N[C@H](C(=O)N[C@@H](CC(N)=O)C(=O)N[C@H](C(=O)NCC(=O)N1CCC[C@H]1C(=O)N[C@@H](CCC(=O)O)C(=O)N[C@H](C(=O)N[C@@H](Cc1ccc(O)cc1)C(N)=O)[C@@H](C)O)C(C)C)[C@@H](C)O, Synthetic acylated analogue of human amylin; also called compound 120) | 868 | 45.3 | 140 | 0.161 |
| K([γGlu-γGlu-C20 diacid])CNTATCATQRLAHFLRHSSPNFGAIPSSTNVGSNTY-NH2 (disulfide 2-7; N-terminus assumed; SMILES CC[C@H](C)[C@H](NC(=O)[C@H](C)NC(=O)CNC(=O)[C@H](Cc1ccccc1)NC(=O)[C@H](CC(N)=O)NC(=O)[C@@H]1CCCN1C(=O)[C@H](CO)NC(=O)[C@H](CO)NC(=O)[C@H](Cc1c[nH]cn1)NC(=O)[C@H](CCCNC(=N)N)NC(=O)[C@H](CC(C)C)NC(=O)[C@H](Cc1ccccc1)NC(=O)[C@H](Cc1c[nH]cn1)NC(=O)[C@H](C)NC(=O)[C@H](CC(C)C)NC(=O)[C@H](CCCNC(=N)N)NC(=O)[C@H](CCC(N)=O)NC(=O)[C@@H](NC(=O)[C@H](C)NC(=O)[C@@H]1CSSC[C@H](NC(=O)[C@@H](N)CCCCNC(=O)CC[C@H](NC(=O)CC[C@H](NC(=O)CCCCCCCCCCCCCCCCCCC(=O)O)C(=O)O)C(=O)O)C(=O)N[C@@H](CC(N)=O)C(=O)N[C@@H]([C@@H](C)O)C(=O)N[C@@H](C)C(=O)N[C@@H]([C@@H](C)O)C(=O)N1)[C@@H](C)O)C(=O)N1CCC[C@H]1C(=O)N[C@@H](CO)C(=O)N[C@@H](CO)C(=O)N[C@H](C(=O)N[C@@H](CC(N)=O)C(=O)N[C@H](C(=O)NCC(=O)N[C@@H](CO)C(=O)N[C@@H](CC(N)=O)C(=O)N[C@H](C(=O)N[C@@H](Cc1ccc(O)cc1)C(N)=O)[C@@H](C)O)C(C)C)[C@@H](C)O, Synthetic acylated analogue of human amylin; also called compound 92) | 156 | 145 | 104 | 0.668 |
